# Results as given in the RNAGym collection of RNA variant scans (doi:10.7554/elife.90254).
# B1: OR4K15 (parent)
# chain: GUUAACGGUCAUAGGCCAUGGAAACUAGGAGCACCAUUUCGCUGCCAGUGAAGAAAUGAACAAAGAAAAUCUGGGCCAGGCAGGCAUCAAAAGAAAUAGUCUUGCGCUCAACCAGAAAGUCUGUAAUCAUUUUAAGGGUA
# Variants of: B1
# Experiment: self-cleavage, relative activity (ratio to wild type); higher = more cleavage; in vitro, sequencing; the parent is a self-cleaving ribozyme
row,Variant,self-cleavage
1,A11C A13U,1.09
2,U9C C85U,1.44
3,U9A A63G,1.23
4,U9A A22C,0.95
5,U9C U70C,0.77
6,U9C U70A,0.97
7,U9A A60G,0.57
8,G7A A86U,1.86
9,A11C A82U,0.36
10,A11G A60G,0.86
11,G7A G75U,0.13
12,U9A A129U,1.02
13,U9G A68G,0.72
14,A11C A78G,0.18
15,G7A U26A,0.93
16,G7A U26C,1.44
17,U9C G65A,2.38
18,C6U U102C,0.35
19,U9C G104A,0.06
20,G7U A23G,1.04
21,G7U A23C,1.66
22,C10U G31U,1.22
23,U9C G29A,2.15
24,U9G A129G,0.65

row,Variant,self-cleavage
1,U9A G115A,0.23
2,U9A A111G,0.03
3,G7U G137U,1.84
4,U9C A62G,1.49
5,G7A A55G,1.39
6,A11G A95G,1.73
7,U9A A30U,1.22
8,A11G A64U,0.97
9,A11G A64G,1.3
10,U9C C105U,0.14
11,G7A U9C,2.32
12,U9C A18G,1.65
13,G8A U43A,2.05
14,U9A U72C,0.16
15,U9C U37C,1.57
16,G8A A98G,1.78
17,U9G A118G,0.91
18,G8A A59G,1.47
19,U9C U124C,1.25
20,C10U A94G,1.27
21,A11C A24G,1.94
22,U9C U87C,0.96
23,U9C U87A,1.98
24,U9C U87G,0.69

row,Variant,self-cleavage
1,U9C G31A,1.12
2,U9C U131A,1.8
3,U9C A90G,1.04
4,U9C U57C,1.07
5,U9C U57G,1.07
6,G7A U102C,1.75
7,A11G A52G,1.03
8,U9C A52C,1.39
9,A11C A86G,1.7
10,A11G A96G,1.18
11,U9A U124C,0.91
12,U9C A110C,0.45
13,U9C A110U,1.32
14,G7A A111U,0.04
15,C10A G44A,1.2
16,U9A A47U,0.91
17,G7A U100A,0.82
18,G7A U100C,2.22
19,U9A U120A,1.36
20,U9A U120C,0.79
21,C10U G14U,0.49
22,C10A,1.11
23,C10U,0.84
24,A11G A62G,1.11

row,Variant,self-cleavage
1,A11C U127C,0.83
2,U9C C16U,1.59
3,G8A U122C,0.6
4,U9G A92G,1.15
5,U9A A24U,2.1
6,C10A U37C,1
7,C10A U37G,0.71
8,U9C C45G,0.85
9,G7A C34U,1.3
10,G7U U97A,1.41
11,U9A U102C,1.97
12,G7U A68G,2.39
13,G7C A11G,1.03
14,A11G A51U,0.82
15,U9C A114U,0.1
16,G8A A91G,1.17
17,U9C A22U,1.7
18,U9A A51G,1.66
19,U9A A51U,1.34
20,U9C C109G,0.04
21,U9C C109A,0.49
22,U9C A94G,1.35
23,U9C C61U,2.27
24,G7C A23G,0.73

row,Variant,self-cleavage
1,G7A A78U,0.33
2,U9A U100C,1.68
3,U9C G115C,0.11
4,G7A A90U,2.31
5,U9G A91C,0.6
6,U9C A125G,0.66
7,G8A A33U,2.08
8,U9C A27G,1.55
9,U9C A27U,1.02
10,U9A G58A,0.78
11,C10U U37C,1.65
12,G7U G138C,2.14
13,U9C U97C,1.09
14,A11C U102C,1.91
15,U9C A126G,1.19
16,C10U G104A,0.06
17,A11G A13G,1.26
18,A11G A13U,0.72
19,G7A A96U,1.83
20,G7A A96G,2.05
21,U9C A82C,0.07
22,U9A G106C,0.05
23,U9C A33G,1.15
24,U9C A33U,1.73

row,Variant,self-cleavage
1,U9C A91G,1.2
2,U9C A91C,2.12
3,U9C A63G,1.64
4,C10A A30G,0.63
5,G7A A62U,1.38
6,A11C U131C,0.89
7,U9C U108A,0.04
8,C10U A68G,0.34
9,C6U U122C,0.82
10,C10U A82U,0.13
11,G7U,1.23
12,G7A,1.65
13,G7C,1.07
14,U9A A66G,1
15,C10U A125G,0.61
16,U9C U120C,1.66
17,U9C A59U,1.48
18,U9A A95G,1.18
19,U9A A116G,0.45
20,U9A A116U,0.18
21,U9C U122A,1.06
22,A11G A67U,1.16
23,A11G A67G,0.74
24,U9C A66U,1.42

row,Variant,self-cleavage
1,A11G A18U,0.46
2,A11G A18G,1.36
3,U9A U122G,2.09
4,U9A C109A,0.42
5,G7A U70C,1
6,A11G A63G,1.1
7,A11G A63C,0.97
8,C10U U19C,1.34
9,A11C A60G,1.07
10,U9A A135G,1.41
11,U9A A135U,1
12,A11G A92G,1.1
13,A11G A92U,1.26
14,U9C U102A,1.31
15,U9C U102C,2.15
16,C10U A78G,0.1
17,U9A U70C,1.07
18,U9A U43C,1.25
19,U9A U43G,1.18
20,U9C A36U,1.48
21,A11G A47U,0.98
22,G7U A60G,0.79
23,A11C A52U,1.5
